Experiments:
Assay in all cases: SPR competition: 4 nM TGFβ pre-mixed with TGFβ-RIIb-Fc, injected over immobilised XPA.42.089 (competitor)
TGFβ3 (human) = TGFβ3 (human) (UniProt P10600)
TGFβ2 (human) = TGFβ2 (human) (UniProt P61812)
TGFβ1 (human) = TGFβ1 (human) (UniProt P01137)

- average RU of TGFβ binding (TGFβ3 (human)): -0.378 RU
- average RU of TGFβ binding (TGFβ2 (human)): 38.2 RU
- average RU of TGFβ binding (TGFβ1 (human)): -0.316 RU
Substance: TGFβ-RIIb-Fc recombinant receptor (from UniProt P37173 23-184) (Fc fusion)
